Test results from PMC5331220.

Legend:
Assay in all cases: ITC; GppNHp-Rab35 (480 μM) injected in 2 μl aliquots into the C-terminal MICAL1 domain (60 μM) in the cell; 10 °C; 50 mM Tris pH 8, 150 mM NaCl, 2 mM MgCl2, 2 mM TCEP, 5% glycerol; one-site model
[1] = target: MICAL1^918–1067 WT C-terminal domain (tag cleaved) (human) (UniProt Q8TDZ2)
[2] = target: MICAL1^918–1067 mutant S1 (human) (UniProt Q8TDZ2)
[3] = target: MICAL1^879–1067 (tag cleaved, for ITC) (human) (UniProt Q8TDZ2)
MICAL1^879–1067 (tag cleaved, for ITC) (human), sequence (Q8TDZ2 879-1067): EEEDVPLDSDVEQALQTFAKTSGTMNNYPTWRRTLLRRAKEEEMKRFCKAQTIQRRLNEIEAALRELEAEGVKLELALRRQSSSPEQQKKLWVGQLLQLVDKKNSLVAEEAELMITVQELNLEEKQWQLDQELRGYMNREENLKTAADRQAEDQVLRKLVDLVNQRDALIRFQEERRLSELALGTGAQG

MICAL1^918–1067 WT C-terminal domain (tag cleaved) (human), sequence (Q8TDZ2 918-1067): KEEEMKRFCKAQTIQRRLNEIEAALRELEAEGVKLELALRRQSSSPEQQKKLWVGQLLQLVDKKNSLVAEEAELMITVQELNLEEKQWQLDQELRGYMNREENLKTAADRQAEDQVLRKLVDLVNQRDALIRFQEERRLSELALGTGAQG

- Kd [1]: 6.4 µM
- stoichiometry N [1]: 1
- stoichiometry N [2]: 1
- Kd [3]: 13 µM
Substance: Rab35 (recombinant, for ITC and competition; Rab35^1-199 taken as the likeliest construct) (from UniProt Q15286 1-199) (natural protein)
